The values that follow are results of earlier work, collected in paper PMC3556358.

In the data set the target is insulin receptor (Homo sapiens) (UniProt P06213).
Chain of UniProt P06213 (P06213 763-1382): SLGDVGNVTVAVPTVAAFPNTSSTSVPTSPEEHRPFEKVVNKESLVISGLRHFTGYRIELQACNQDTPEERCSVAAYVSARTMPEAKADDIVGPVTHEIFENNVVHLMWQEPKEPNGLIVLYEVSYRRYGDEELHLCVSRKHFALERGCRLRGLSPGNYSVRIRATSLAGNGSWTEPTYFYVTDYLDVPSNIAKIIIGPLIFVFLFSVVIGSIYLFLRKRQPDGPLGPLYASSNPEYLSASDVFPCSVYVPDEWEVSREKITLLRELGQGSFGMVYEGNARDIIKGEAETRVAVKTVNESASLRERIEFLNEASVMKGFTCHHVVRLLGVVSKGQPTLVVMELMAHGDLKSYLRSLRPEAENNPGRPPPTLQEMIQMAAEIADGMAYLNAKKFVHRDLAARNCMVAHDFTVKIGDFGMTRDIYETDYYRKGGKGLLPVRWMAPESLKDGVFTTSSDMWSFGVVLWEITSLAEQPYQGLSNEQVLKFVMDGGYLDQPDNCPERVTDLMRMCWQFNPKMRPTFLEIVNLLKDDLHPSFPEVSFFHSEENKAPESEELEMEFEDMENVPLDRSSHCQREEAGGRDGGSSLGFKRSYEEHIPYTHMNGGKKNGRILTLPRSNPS

Chain of insulin (P01308 90-110): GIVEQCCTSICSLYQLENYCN

For insulin (from UniProt P01308), the Kd is 0.3 nM.
